This note sets out measurements from US20220332804A1 (CSL INNOVATION, published 2022).

Common to all, as to experiment: SPR, antibody captured, C2 as analyte;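 also: biacore SPR at 37 °C, anti-C2 mAbs captured via goat anti-human IgG on CM5 chips, double-referenced sensorgrams fit to a 1:1 kinetic or steady-state model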
In one test the target is T1, human C2 H451A (human, UniProt P06681 21-752).
T1 sequence: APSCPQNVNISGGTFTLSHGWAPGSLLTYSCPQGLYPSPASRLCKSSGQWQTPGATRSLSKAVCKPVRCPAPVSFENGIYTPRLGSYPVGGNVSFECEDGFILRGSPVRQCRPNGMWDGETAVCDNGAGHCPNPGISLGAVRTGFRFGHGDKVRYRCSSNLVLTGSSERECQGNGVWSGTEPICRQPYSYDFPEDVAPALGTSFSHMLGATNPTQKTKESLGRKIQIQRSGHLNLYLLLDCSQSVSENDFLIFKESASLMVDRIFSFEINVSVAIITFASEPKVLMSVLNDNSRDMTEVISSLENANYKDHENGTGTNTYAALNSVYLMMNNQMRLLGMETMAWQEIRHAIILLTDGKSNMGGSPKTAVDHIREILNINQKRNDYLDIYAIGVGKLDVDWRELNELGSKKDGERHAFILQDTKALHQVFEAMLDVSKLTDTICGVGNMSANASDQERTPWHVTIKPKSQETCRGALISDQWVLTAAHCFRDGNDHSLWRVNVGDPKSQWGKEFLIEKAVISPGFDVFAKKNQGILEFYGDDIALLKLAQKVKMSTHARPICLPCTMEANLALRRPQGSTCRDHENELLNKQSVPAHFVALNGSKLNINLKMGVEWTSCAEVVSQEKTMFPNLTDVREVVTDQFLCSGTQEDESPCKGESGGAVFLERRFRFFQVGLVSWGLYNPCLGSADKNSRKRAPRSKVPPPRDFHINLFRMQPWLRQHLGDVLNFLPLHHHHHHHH

The next test has as its target T2, human C2 P704A (human, UniProt P06681 21-752).
T2 sequence: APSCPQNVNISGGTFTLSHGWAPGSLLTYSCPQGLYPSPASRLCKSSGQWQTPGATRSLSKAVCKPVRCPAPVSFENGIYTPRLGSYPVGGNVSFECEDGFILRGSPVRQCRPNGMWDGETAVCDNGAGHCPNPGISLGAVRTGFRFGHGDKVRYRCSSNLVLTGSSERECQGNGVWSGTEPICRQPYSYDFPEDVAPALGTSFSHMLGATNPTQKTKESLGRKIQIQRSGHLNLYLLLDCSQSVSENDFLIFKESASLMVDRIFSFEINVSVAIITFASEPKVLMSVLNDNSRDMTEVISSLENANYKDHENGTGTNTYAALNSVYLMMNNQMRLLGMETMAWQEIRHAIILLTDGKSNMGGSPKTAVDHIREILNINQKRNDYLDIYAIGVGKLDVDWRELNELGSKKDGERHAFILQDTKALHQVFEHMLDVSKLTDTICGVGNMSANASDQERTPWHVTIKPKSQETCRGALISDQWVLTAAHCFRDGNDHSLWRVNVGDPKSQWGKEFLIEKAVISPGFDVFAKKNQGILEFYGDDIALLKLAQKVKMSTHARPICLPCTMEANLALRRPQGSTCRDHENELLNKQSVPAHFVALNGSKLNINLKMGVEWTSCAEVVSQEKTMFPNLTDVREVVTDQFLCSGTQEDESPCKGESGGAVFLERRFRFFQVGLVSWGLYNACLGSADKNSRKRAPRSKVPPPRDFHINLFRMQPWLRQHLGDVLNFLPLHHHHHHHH

For the next test, the target named is T3, human C2 K676S (human, UniProt P06681 21-752).
T3 sequence: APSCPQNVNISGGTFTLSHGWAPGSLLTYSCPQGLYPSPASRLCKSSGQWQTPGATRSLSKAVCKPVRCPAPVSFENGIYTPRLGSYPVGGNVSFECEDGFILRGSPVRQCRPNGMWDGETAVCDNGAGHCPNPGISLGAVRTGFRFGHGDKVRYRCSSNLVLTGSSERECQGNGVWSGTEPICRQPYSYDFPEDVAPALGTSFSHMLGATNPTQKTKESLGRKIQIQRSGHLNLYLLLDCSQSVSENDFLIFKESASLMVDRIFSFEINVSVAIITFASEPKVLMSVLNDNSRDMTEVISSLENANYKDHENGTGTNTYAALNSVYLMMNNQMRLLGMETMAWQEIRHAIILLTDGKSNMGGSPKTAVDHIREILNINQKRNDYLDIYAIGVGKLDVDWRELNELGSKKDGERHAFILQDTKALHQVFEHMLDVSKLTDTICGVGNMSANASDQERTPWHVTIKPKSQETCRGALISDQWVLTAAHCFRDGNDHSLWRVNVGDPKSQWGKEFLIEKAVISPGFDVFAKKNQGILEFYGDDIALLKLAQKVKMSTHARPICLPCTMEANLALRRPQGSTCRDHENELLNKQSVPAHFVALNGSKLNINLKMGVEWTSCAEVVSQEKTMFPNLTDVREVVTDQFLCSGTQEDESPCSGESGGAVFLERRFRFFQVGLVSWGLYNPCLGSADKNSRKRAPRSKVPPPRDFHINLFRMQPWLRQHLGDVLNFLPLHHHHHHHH

The target in the next test is T4, human C2 R519A (human, UniProt P06681 21-752).
T4 sequence: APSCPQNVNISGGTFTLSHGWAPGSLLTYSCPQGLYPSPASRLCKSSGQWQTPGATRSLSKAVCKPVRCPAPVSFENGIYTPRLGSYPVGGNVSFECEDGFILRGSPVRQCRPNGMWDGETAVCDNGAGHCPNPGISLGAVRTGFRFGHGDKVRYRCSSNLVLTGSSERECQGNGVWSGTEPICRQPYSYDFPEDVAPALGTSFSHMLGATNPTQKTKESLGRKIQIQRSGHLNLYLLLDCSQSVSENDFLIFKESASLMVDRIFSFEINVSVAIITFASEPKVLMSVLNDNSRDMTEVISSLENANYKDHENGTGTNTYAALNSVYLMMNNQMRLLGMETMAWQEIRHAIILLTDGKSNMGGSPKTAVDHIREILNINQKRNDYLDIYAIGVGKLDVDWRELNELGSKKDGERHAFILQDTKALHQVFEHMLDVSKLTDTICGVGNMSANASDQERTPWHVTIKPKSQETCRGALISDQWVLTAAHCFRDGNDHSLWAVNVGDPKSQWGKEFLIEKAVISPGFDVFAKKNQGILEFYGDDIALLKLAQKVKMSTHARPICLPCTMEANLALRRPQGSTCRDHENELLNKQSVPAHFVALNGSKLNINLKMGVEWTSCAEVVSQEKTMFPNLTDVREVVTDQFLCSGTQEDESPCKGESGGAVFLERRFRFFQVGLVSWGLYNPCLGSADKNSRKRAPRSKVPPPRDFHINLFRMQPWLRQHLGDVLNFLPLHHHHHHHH

B1: RF16-226 (antibody, human IgG4 S228P, lambda)
heavy: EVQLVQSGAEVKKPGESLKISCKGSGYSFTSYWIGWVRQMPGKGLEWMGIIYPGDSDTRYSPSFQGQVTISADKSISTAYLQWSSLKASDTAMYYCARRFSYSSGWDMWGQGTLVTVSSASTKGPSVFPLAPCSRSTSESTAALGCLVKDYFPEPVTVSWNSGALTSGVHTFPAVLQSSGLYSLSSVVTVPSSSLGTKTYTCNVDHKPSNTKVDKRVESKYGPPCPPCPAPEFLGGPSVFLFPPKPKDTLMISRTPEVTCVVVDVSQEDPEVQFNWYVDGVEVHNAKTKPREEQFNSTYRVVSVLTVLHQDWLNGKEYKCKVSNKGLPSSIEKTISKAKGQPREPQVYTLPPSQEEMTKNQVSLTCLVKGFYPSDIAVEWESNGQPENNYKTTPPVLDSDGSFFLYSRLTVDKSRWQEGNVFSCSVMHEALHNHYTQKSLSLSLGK
light: SYELTQPPSVSVSPGQTARITCSGDALTSKYVAWYQQKSGLAPLLVIYEDTRRPSGIPAKFSGSSSGSVATLTISGAHGDDEADYYCYSTDASGHQRVFGGGTKLTVLSQPKAAPSVTLFPPSSEELQANKATLVCLISDFYPGAVTVAWKADGSPVKAGVETTKPSKQSNNKYAASSYLSLTPEQWKSHRSYSCQVTHEGSTVEKTVAPTECS
notes: pH-dependent anti-C2 antibody from a phage display library; also called WT
Consider B1, for which the Kd in the test with human C2 H451A is 105 nM; in the test with human C2 P704A it was 120 nM; with human C2 K676S, 16.3 nM; with human C2 R519A it was 11.2 nM.
